Data as given in patent publication US20210009668A1 (ROCHE DIAGNOSTICS OPERATIONS, published 2021).
Residue numbers refer to the chain shown, from its start. Numbers in names are those of the source.

B1: anti-cTnT Fab mutant 22 (F60W, Y104F) (Fab, V domains shown)
VH: EVQLQQSGPELVKPGASVKMSCKASGYTFTDYYMKWVKQSHGKSLEWIGDINPNNGETWYNQKFKDKATLTVDKSSSTAYMQLNSLTSEDSAVYYCATRVFDFWGQGTTLTVSS
VL: DIVLTQSPASLAVSLGQRATISCKASQSVDYDGTSYMNWFQQKAGQPPKRLIYAASNLESGIPARFSGRGSGTDFALNIHPVEEEDAATYYCQQSNEDPYTFGGGTKLEIK
notes: also called combination 22
B2: anti-cTnT Fab mutant 18 (V101Y) (Fab, V domains shown)
VH: B1 VH with W59F, V100Y, F103Y
VL: B1 VL
notes: it was tied to mutant 18 by the printed mutation V101Y; also called combination 18
B3: anti-cTnT Fab mutant 19 (Y104F) (Fab, V domains shown)
VH: B1 VH with W59F
VL: B1 VL
notes: also called combination 19
B4: anti-cTnT Fab mutant 20 (V101Y + Y104F) (Fab, V domains shown)
VH: B1 VH with W59F, V100Y
VL: B1 VL
notes: also called combination 20
B5: anti-cTnT Fab mutant 21 (F60W, V101Y) (Fab, V domains shown)
VH: B1 VH with V100Y, F103Y
VL: B1 VL
notes: also called combination 21
B6: anti-cTnT Fab mutant 23 (F60W, V101Y + Y104F) (Fab, V domains shown)
VH: B1 VH with V100Y
VL: B1 VL
notes: it was tied to mutant 23 by the printed mutations; also called combination 23

molecular target: T1, recombinant human cardiac troponin T (human, UniProt P45379 2-298); assay: SPR (Biacore T200, 37 C), Fab captured, cTnT analyte; Fab fragment
T1 construct: In the ECL assay the cTnT came from the Troponin T hs CalSet calibrator; also called cTnT; TnT
Experimental: Detailed kinetic investigations were performed at 37° C. on a GE Healthcare T200 instrument. A Biacore CM-5 series S sensor was mounted into the instrument and was preconditioned according to the manufacturer's instructions. The system buffer was HBS-ET (10 mM HEPES (pH 7.4), 150 mM NaCl, 1 mM EDTA, 0.05% (w/v) Tween® 20). The sample buffer was the system buffer supplemented with 1 mg/ml CMD (Carboxymethyldextran, Fluka). In one embodiment an anti-human antibody capture system was established on the CMS biosensor. GAHF(ab′)2, (goat anti human F(ab′)2) (Code Nr.: 109-005-097, lot #13.12.2005, Jackson Immuno Research) was immobilized according to the manufacturer's instructions using NHS/EDC chemistry. 30 μg/ml GAHF(ab′)2 in 10 mM sodium acetate buffer (pH 5.0) were preconcentrated to the flow cells 1, 2, 3 and 4 and were immobilized with 10.000 RU GAHF(ab′)2. […]
Chimeric anti-TnT antibody fragments were periplasmatically expressed in E. coli cells as described and were lyzed by methods known (for technical details see: Andersen, D. C. & Reilly, D. E. (2004); Production technologies for monoclonal antibodies and their fragments. Curr Opin Biotechnol 15, 456-62). […] The Fab fragment capture level (CL) in response units (RU) was monitored. […] The analyte concentration series were 80 μl/min for 3 min association phase and the dissociation phase was monitored for 3 min. […]

Row | Binder | Kd [nM]
1 | B1 | 0.38

molecular target: T1, recombinant human cardiac troponin T; assay: SPR (Biacore T200, 37 C), Fab captured, cTnT analyte
Experimental: Detailed kinetic investigations were performed at 37° C. on a GE Healthcare T200 instrument. A Biacore CM-5 series S sensor was mounted into the instrument and was preconditioned according to the manufacturer's instructions. The system buffer was HBS-ET (10 mM HEPES (pH 7.4), 150 mM NaCl, 1 mM EDTA, 0.05% (w/v) Tween® 20). The sample buffer was the system buffer supplemented with 1 mg/ml CMD (Carboxymethyldextran, Fluka). In one embodiment an anti-human antibody capture system was established on the CMS biosensor. GAHF(ab′)2, (goat anti human F(ab′)2) (Code Nr.: 109-005-097, lot #13.12.2005, Jackson Immuno Research) was immobilized according to the manufacturer's instructions using NHS/EDC chemistry. 30 μg/ml GAHF(ab′)2 in 10 mM sodium acetate buffer (pH 5.0) were preconcentrated to the flow cells 1, 2, 3 and 4 and were immobilized with 10.000 RU GAHF(ab′)2. The sensor was subsequently saturated with 1 M ethanolamine pH 8.5.
Chimeric anti-TnT antibody fragments were periplasmatically expressed in E. coli cells as described and were lyzed by methods known (for technical details see: Andersen, D. C. & Reilly, D. E. (2004); Production technologies for monoclonal antibodies and their fragments. Curr Opin Biotechnol 15, 456-62). The lysates were diluted 1:20 in sample buffer. Fab fragments were captured via their humanized framework regions from the expression lysates on the biosensor at a flow rate of 10 μl/min for 1 min followed by a 2 min washing step with 10-fold concentrated HBS-EP buffer at 30 μl/min. The Fab fragment capture level (CL) in response units (RU) was monitored. Recombinant human TnT (Roche, 37 kDa) was diluted in sample buffer at 90 nM and a concentration series was produced with […], 30 nM, 11 nM, 3.3 nM, 1.1 nM, 0 nM, 3.3 nM TnT concentration. The analyte concentration series were 80 μl/min for 3 min association phase and the dissociation phase was monitored for 3 min.
The kinetic parameters ka [1/Ms], kd [1/s], t1/2 diss [min], KD [M] and the binding stoichiometry (Molar Ratio) (for details see: Schraeml, M. & Biehl, M. (2012); Kinetic screening in the antibody development process. Methods Mol Biol 901, 171-81.) of the cTnT analyte were determined for each Fab fragment mutant with the Biaevaluation Software (GE healthcare) according to the manufacturer's instructions.

Row | Binder | Kd [nM] | MR (Molar Ratio) | koff [s⁻¹] | kon [M⁻¹ s⁻¹] | t/2-diss [min]
2 | B2 | 1.6 | 0.5 | 0.0047 | 2.9e+06 | 2
3 | B3 | 0.46 | 0.8 | 0.0014 | 2.9e+06 | 8
4 | B4 | 1.1 | 0.6 | 0.0034 | 3.1e+06 | 3
5 | B5 | 1.6 | 0.5 | 0.0043 | 2.7e+06 | 
6 | B1 |  | 0.7 | 0.0011 | 3e+06 | 10
7 | B6 | 1.2 | 0.6 | 0.0034 | 2.8e+06 | 3
